# Several values for one entry are separate records, joined by “and”; a condition that tells them apart may be missing. Equal entries are not always repeated. Entries after “also recorded” stand apart in the source; their conditions may differ.
# Legend:
# Human plasmin [1] = biological target: T1, Human plasmin (human, UniProt P00747 97-810, limits assumed); test: plasmin inhibition assay, residual amidolytic activity on S-2251
# T1 construct: Bought enzyme
# Protocol: (§1) Plasmin Inhibition Assays. […] The chromogenic substrate S-2251 was then added, and residual amidolytic activity was measured in a Molecular Devices UVmax kinetic microplate reader at different end points (0.5 and 1 hr) and S2251 (0.5 and 1 mM) concentrations. Plasmin inhibitory data were analyzed according to the quadratic binding expression.
# In control experiments, it was first studied if there was any substrate-induced displacement of bound inhibitor by increasing substrate concentrations.
# [2] = tested on: intrinsic pathway of blood coagulation; test: aPTT (activated partial thromboplastin time) of normal plasma; assay type: biochemical; details: normal human plasma, 5 min at 37° C., FIG. 5
# Protocol: Seventy-five microliter of 25 mM CaCl2 prewarmed to 37° C. was then added and the time needed to form the clot through the intrinsic pathway of blood coagulation was noted.
# A common procedure to test inhibition of clotting is to examine the aPTT (activated partial thromboplastin time) of normal plasma. In this test, surface activator plus phospholipid was mixed with normal plasma in equal amounts (75 microliter). […] Seventy-five microliter of 25 mM CaCl2 prewarmed to 37° C. was then added and the time needed to form the clot was noted.
# In the aPTT system, coagulation is initiated by the activation of factor XII to Factor XIIa by contact phase involving the kallikrein system. Factor XIIa then activates factor XI to factor XIa in the coagulation cascade.
# Mouse plasmin [3] = biological target: Mouse plasmin (mouse, UniProt P20918 98-812, limits assumed); test: mouse plasmin inhibition assay
# Sequence of Mouse plasmin (P20918 98-812 limits assumed): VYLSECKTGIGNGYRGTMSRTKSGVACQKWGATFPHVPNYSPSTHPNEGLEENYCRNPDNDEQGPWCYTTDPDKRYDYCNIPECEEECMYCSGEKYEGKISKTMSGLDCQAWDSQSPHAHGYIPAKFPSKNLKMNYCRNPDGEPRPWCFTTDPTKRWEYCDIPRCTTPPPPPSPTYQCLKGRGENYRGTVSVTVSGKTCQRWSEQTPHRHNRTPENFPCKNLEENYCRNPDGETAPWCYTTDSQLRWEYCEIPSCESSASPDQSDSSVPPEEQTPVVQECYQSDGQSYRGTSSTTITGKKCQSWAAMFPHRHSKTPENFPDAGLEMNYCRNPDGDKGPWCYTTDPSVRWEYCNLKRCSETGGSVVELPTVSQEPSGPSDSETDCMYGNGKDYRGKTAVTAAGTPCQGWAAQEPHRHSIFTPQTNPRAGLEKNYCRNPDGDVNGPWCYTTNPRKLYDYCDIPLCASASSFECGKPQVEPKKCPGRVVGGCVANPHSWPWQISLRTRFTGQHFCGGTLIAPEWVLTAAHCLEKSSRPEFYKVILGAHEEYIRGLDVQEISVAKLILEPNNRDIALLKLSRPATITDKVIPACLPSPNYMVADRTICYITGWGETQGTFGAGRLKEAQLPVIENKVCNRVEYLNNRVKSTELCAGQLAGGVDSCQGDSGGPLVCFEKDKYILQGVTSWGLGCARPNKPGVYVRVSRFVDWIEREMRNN
# [4] = tested on: mouse tail vein bleeding model; test: Mouse tail vein bleeding model; assay type: in vivo; details: intravenously, about 100 microgram/mouse, compared to saline control
# Text: A mouse tail vein bleeding model has been described to study the efficacy of a snake plasmin inhibitor (Masci et al. Blood Coagulation and Fibrinolysis 2000, Vol 11, pages 385-393). […] The doses of the plasmin inhibitors used in these experiments were similar to that used during human CPB (cardiopulmonary bypass) surgery, adjusted to the mouse weight. The Animal Ethics Committee of UCLA approved all mice experiments and the dose used in human surgery adjusted to mouse weight was a realistic basis for these initial studies. The serum BUN/Creatinine levels were normal after two days and seven days following administration of the drug.
# mouse plasmin [5] = biological target: mouse plasmin (Mus musculus, UniProt P20918); test: Mouse plasmin inhibition; assay type: biochemical; details: 1 μM inhibitor; FIG. 6
# Sequence of mouse plasmin (P20918 582-812 limits assumed): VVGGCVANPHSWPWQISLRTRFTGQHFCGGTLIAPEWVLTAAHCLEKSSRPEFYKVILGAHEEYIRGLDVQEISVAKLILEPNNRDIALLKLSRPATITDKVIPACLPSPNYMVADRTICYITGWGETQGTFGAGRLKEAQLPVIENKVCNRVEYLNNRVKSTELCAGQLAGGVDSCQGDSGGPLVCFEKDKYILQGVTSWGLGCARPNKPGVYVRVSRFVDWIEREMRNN
# Sequence of mouse plasmin (P20918 98-581 partner limits assumed): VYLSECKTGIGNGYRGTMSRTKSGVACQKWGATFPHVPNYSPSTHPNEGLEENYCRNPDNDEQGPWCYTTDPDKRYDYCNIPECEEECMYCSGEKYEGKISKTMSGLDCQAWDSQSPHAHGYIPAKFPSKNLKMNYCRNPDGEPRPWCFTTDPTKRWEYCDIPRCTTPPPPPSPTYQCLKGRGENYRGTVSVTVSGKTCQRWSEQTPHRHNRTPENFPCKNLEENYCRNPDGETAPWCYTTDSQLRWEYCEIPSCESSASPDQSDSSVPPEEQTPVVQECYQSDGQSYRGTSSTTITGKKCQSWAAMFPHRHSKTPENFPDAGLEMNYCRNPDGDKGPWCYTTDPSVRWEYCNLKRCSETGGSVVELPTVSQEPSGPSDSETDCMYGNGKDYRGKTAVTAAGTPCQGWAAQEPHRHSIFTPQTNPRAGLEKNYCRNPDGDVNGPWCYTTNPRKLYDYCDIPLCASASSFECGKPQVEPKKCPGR
# Text: Both WT KD1 and L26R inhibited mouse plasmin effectively. […] Since both the wild-type and the mutant inhibit mouse plasmin, one can use the mutant to show efficacy in vivo in an animal model of bleeding.
# Human plasmin [6] = biological target: T2, Human plasmin (Homo sapiens, UniProt P00747); test: Plasmin inhibition assay (residual amidolytic activity, chromogenic substrate S-2251); assay type: biochemical; details: for fold stronger binding to plasmin than WT KD1: relative to WT KD1
# T2 construct: purchased Enzyme research laborotories
# T2 sequence (P00747 581-810 limits assumed): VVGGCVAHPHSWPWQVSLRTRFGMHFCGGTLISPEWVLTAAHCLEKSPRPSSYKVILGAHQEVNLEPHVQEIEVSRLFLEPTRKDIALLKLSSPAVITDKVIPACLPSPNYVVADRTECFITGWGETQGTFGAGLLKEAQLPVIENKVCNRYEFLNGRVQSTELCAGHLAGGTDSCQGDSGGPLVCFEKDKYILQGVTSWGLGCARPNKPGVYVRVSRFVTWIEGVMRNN
# T2 sequence (P00747 97-580 partner limits assumed): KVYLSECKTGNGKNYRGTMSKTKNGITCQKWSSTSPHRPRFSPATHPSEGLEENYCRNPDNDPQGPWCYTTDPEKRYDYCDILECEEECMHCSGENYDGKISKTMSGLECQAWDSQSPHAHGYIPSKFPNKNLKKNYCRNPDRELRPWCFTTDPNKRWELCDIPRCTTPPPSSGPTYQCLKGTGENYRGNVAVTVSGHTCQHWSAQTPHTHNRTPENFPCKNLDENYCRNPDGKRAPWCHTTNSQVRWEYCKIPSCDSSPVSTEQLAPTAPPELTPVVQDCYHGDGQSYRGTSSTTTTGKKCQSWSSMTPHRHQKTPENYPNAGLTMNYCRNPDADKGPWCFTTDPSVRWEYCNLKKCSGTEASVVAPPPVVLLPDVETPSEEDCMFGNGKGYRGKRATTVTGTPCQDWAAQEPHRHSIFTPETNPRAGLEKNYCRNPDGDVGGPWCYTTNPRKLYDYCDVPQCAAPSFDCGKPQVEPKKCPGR
# Text: Materials and methods: The chromogenic substrates H-D-Val-Leu-Lys-p-nitroanilide (S-2251) was purchased from DiaPharma Group Inc. (West Chester, Ohio). Human plasmin was purchased from Enzyme research laborotories. Bovine aprotinin (BPTI) was used from Zymogenetics. Escherichia coli strain BL21(DE3)pLys and pET28a expression vector were products of Novagen Inc. (Madison, Wis.). The QuikChange® site-directed mutagenesis kit was obtained from Stratagene (La Jolla, Calif.).
# as §1
# kallikrein = kallikrein (Homo sapiens, UniProt P03952); details: Petersen et al 1996; cited from earlier work
# Sequence of kallikrein (P03952 391-638 limits assumed): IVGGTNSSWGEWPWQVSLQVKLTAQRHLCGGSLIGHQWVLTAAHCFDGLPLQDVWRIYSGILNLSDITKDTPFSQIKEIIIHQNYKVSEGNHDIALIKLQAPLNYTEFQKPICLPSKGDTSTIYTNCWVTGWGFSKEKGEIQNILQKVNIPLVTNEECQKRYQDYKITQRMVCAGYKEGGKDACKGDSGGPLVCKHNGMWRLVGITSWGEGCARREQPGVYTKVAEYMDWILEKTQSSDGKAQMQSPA
# Sequence of kallikrein (P03952 20-390 partner limits assumed): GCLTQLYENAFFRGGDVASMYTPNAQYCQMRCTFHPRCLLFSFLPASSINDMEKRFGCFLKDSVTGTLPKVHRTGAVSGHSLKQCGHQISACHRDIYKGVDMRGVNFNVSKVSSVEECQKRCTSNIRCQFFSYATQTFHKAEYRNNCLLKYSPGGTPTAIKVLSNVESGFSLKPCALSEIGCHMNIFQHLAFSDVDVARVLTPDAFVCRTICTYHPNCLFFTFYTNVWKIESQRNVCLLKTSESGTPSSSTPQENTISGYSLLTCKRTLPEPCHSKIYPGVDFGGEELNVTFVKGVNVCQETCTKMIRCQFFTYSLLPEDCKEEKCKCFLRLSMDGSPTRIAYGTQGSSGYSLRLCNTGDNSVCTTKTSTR
# Human plasmin [7] = biological target: T1, Human plasmin; test: plasmin inhibition assay, residual amidolytic activity on S-2251, quadratic binding fit
# Protocol: as §1
# (§2) The incubation time was 1 hr at 37° C. and substrate concentration was 1 mM for the remaining activity measurements.
# factor XIa = factor XIa (Homo sapiens, UniProt P03951); details: Petersen et al 1996; cited from earlier work
# Sequence of factor XIa (P03951 388-625 limits assumed): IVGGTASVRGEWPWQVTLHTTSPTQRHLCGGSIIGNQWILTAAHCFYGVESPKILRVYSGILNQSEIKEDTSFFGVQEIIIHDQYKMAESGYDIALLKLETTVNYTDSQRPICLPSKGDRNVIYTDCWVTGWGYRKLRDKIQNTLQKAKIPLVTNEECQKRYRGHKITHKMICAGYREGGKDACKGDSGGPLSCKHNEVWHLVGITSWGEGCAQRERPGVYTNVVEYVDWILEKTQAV
# Sequence of factor XIa (P03951 19-387 partner limits assumed): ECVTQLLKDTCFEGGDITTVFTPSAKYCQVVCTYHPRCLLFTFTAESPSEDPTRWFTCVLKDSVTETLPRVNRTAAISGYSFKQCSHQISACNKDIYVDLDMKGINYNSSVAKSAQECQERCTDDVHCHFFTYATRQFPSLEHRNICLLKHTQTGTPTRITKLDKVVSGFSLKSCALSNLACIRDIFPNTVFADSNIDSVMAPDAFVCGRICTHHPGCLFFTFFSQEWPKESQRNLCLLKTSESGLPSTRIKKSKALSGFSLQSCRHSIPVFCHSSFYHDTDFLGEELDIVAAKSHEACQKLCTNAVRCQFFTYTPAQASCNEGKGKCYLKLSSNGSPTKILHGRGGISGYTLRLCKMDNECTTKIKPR
# Human plasmin [8] = biological target: T1, Human plasmin; test: plasmin inhibition assay, 1 hr at 37° C., 1 mM S-2251
# Protocol: as §1, §2
# T1 sequence (P00747 97-810 limits assumed): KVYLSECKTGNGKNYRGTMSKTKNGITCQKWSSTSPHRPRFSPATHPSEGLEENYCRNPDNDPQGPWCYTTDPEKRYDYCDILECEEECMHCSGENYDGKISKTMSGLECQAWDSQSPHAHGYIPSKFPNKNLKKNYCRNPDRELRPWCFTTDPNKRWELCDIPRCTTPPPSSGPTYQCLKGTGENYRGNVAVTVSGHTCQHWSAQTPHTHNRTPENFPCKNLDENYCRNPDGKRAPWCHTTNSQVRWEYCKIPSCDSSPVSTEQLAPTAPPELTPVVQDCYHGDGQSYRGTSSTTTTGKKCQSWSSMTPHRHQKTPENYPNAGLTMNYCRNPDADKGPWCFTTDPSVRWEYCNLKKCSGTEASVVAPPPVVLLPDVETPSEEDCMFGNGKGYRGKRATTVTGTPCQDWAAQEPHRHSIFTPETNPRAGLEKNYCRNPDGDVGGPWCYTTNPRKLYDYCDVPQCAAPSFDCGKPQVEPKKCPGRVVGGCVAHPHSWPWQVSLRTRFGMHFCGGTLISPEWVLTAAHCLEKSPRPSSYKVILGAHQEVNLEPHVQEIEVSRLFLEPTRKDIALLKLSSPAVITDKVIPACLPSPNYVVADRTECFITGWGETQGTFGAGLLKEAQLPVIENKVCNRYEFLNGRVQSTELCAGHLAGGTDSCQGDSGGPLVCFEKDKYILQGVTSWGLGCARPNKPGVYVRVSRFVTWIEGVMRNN
Molecule,Ki (Human plasmin [1]) [nM],inhibition of intrinsic pathway of coagulation (prolongation of aPTT clotting time) ([2]; listed as KD1 WT),Kd (Mouse plasmin [3]) [nM],reduction in blood loss [4],inhibition of mouse plasmin at 1 μM (mouse plasmin [5]),substrate-induced displacement of bound inhibitor (Human plasmin [6]; increasing S-2251 concentration (0.5 and 1 mM)),inhibition of kallikrein (kallikrein),Kd (Human plasmin [7]) [nM],inhibition of factor XIa (factor XIa),fold stronger binding than WT KD1 (Human plasmin [1]) [fold],inhibition of intrinsic pathway of coagulation (prolongation of aPTT clotting time) [2],inhibition of intrinsic pathway of coagulation (prolongation of aPTT clotting time) ([2]; listed as L26R KD1),fold stronger binding to plasmin than WT KD1 (Human plasmin [6]; listed as L17R),Kd (Human plasmin [8]),fold difference of Kd against WT KD1 (Human plasmin [8]) [fold],fold stronger binding to plasmin than WT KD1 (Human plasmin [6]),fold stronger binding than the R15K mutant (Human plasmin [1]) [fold]
"Wild type first Kunitz-type proteinase inhibitor domain of human TFPI-2 (KD1) (other, also called WTKD1; WT KD1) DAAQEPTGNNAEICLLPLDYGPCRALLLRYYYDRYTQSCRQFLYGGCEGNANNFYTWEACDDACWRIEKVPKV",22,prolongation of the aPTT; also recorded: inhibit the intrinsic pathway of coagulation,~80,67-70%,Complete inhibition,apparently no displacement of bound inhibitor; also recorded: not any significant substrate induced displacement of inhibitor,inhibits both kallikrein and factor XIa,22,inhibits both kallikrein and factor XIa,–,–,–,–,–,–,–,–
"KD1 L17R mutant (L26R in KD1 numbering) (other, The His tag was removed; also called KD1 L26R; L26R KD1) DAAQEPTGNNAEICLLPLDYGPCRARLLRYYYDRYTQSCRQFLYGGCEGNANNFYTWEACDDACWRIEKVPKV",6,–,~80,67-70%,Complete inhibition,–,–,–,–,~4,no inhibition (prolongation) of aPTT; also recorded: loses activity as an anticoagulant; also recorded: ineffective,no effect on clotting,approximately 4 fold,–,–,–,–
"KD1 R15K mutant (R24K in KD1 numbering) (other, Made from KD1 by site-directed mutagenesis, with the His tag removed; also called R24K mutant) DAAQEPTGNNAEICLLPLDYGPCKALLLRYYYDRYTQSCRQFLYGGCEGNANNFYTWEACDDACWRIEKVPKV",10,–,–,–,–,–,–,–,–,–,–,–,–,9 to 11 nM and 10 nM,2,two-fold different,–
"KD1 R15K/L17R double mutant (R24K/L26R in KD1 numbering) (other, Made from KD1 by site-directed mutagenesis, with the His tag removed) DAAQEPTGNNAEICLLPLDYGPCKARLLRYYYDRYTQSCRQFLYGGCEGNANNFYTWEACDDACWRIEKVPKV",3,–,–,–,–,–,–,–,–,7,–,–,–,3 nM,–,–,~2

# Reference: patent US8993719B2, “Methods and compositions related to mutant Kunitz domain I of TFPI-2” (The Regents of the University of California, priority 2005, dated 2015)
